One assay addresses T1, rat AILIM (rat) (UniProt Q9R1T7).
T1 sequence (looked up): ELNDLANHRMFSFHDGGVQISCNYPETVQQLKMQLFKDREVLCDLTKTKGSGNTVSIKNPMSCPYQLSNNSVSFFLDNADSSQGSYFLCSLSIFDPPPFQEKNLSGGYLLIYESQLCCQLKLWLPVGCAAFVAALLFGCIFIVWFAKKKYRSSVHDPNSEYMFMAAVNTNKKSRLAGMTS
The assay can be described thus: cell ELISA on recombinant CHO cells overexpressing rat AILIM; given as ED50. Background: In an ELISA, binding on a coated surface is turned into a signal by an enzyme label.

For assay [1], the target named is human AILIM (activation inducible lymphocyte immunomodulatory molecule) (human) (UniProt Q9Y6W8). The assay can be described thus: cell ELISA on recombinant CHO cells overexpressing human AILIM; given as ED50.
A further assay addresses T2, mouse AILIM (mouse) (UniProt Q9WVS0).
T2 sequence (looked up): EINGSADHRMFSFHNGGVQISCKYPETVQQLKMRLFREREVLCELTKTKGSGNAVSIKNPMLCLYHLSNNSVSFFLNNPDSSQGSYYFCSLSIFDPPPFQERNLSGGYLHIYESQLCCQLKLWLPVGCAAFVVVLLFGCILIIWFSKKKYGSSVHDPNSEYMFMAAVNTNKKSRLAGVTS
The assay can be described thus: cell ELISA on recombinant CHO cells overexpressing mouse AILIM; given as ED50.

The target of assay [2] is T3, human AILIM-IgFc (recombinant chimeric antigen of the extracellular region of human AILIM and the constant region (Fc) of human IgG1) (human) (UniProt Q9Y6W8).
T3 sequence (biotin-labeled in the inhibition ELISA of Example 14, looked up): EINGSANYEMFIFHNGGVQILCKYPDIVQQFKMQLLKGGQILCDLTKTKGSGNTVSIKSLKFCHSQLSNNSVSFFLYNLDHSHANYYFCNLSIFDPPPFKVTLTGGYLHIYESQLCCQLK
The assay can be described thus: SPR, Biacore X; human AILIM-IgFc immobilised on sensor chip, antibody in flow. For orientation: In SPR one partner is held on a chip, and binding of the other changes the refractive index at the surface.

B1: human anti-human AILIM monoclonal antibody JMab-138 (clone AII289) (antibody, from another filing, human IgG2, V domains shown)
VH: EVQLVESGGGLVQPGGSLRLSCAASGFTFSSYDMHWVRQATGKGLEWVSAIGTAGDTYYPGSVKGRFTISRENAKNSLYLQMNSLRAGDTAVYYCVRDNRKVTHEHYYYYGMDVWGQGTTVTVSS
VL: EIVLTQSPGTLSLSPGERATLSCRASQNIRSSYLAWYQQKPGQAPGLLIYGASSRATGIPDRFSGSGSGTDFTLTISRLEPEDFAVYYCQQFGSSPMCSFGQGTKLEIKR
What is called EC50 is the midpoint of the concentration-response curve. By Kd is commonly meant the concentration at which binding is half-saturated. Broadly, the koff is the rate constant with which the complex falls apart. As for B1, the EC50 with rat AILIM (rat) was determined as 0.057 µg/mL; in assay [1], 0.0105 µg/mL; in the assay with mouse AILIM (mouse), 0.053 µg/mL. Further, in assay [2], the Kd was found to be 1100 pM. Further, in assay [2], the koff came out at 4.2e-05 s⁻¹.

B2: human anti-human AILIM monoclonal antibody JMab-139 (clone AII394) (antibody, from another filing, human IgG2, V domains shown)
VH: EVQLVESGGGLVQPGGSLRLSCAASGFTFSSYDMHWVRQATGKGLEWVSAIGTAGDTYYPGSVKGRFTISRENAKNSLYLQMNSLRAGDTAVYYCVRDKRTVTHEHYYYYGMDVWGQGTTVTVSS
VL: EIVLTQSPGTLSLSPGERATLSCRASQSISSSSLAWYQQKPGQAPGLLIFGASSRATGIPDRFSGSGSGTDFTLTISRLEPEDFAVYYCQQFGSSPMCSFGQGTKLEIKR
As for B2, the EC50 was 0.09 µg/mL in the assay with rat AILIM (rat), 0.0106 µg/mL in assay [1] and 0.06 µg/mL with mouse AILIM (mouse). The Kd in assay [2] worked out at 770 pM. Further, the koff in assay [2] turned out to be 2.4e-05 s⁻¹.
